# Laboratory results taken from US9920105B2, “Human ferritin-derived fusion polypeptide” (Kyungpook National University Industry-Academic Cooperation …, priority 2013, dated 2018).
# B1: GG-AP1L: human ferritin light chain having AP1L (CRKRLDRNC) inserted in GG cassette; AP1-retaining ferritin cage used in asthma model (protein)
# chain: MSSQIRQNYSTDVEAAVNSLVNLYLQASYTYLSLGFYFDRDDVALEGVSHFFRELAEEKREGYERLLKMQNQRGGRALFQDIKKPAEDEWGKTPDAMKAAMALEKKLNQALLDLHALGSARTDPHLCDFLETHFLDEEVKLIKKMGDHLTNLHRGSCRKRLDRNCGGPEAGLGEYLFERLTLKHD
# modifications: left off: small tags and cut ends
# notes: AP1-retaining ferritin cage used in asthma model
# How the values were obtained:
# Assay type in all cases: in vivo
# C57BL/6J mice [1] = assay: Lung microstructure observation (PAS-stained lung slides) in APO-induced asthma model
# Experimental: (§1) Wild-type C57BL/6J mice were purchased from Jackson Laboratory (Bar Harbor, Me., USA), and bred in a pathogen-free animal facility. All animals were fed with a normal diet (PMI Lab Diet) with free access to water. 6-8-week-old female mice were used for this study. Animal care and experimental procedures were performed with the approval of the Animal Care Committee of KAIST.
# (§2) Briefly, Aspergillus oryzae protease (1 mg/mL in PBS, Sigma-Aldrich) and chicken egg ovalbumin (OVA, 0.5 mg/mL in PBS, Sigma-Aldrich) allergen (APO) were mixed 1:9 (v/v) immediately before administration. Mice received four intraperitoneal sensitizations and the intranasal challenge every 4 days (0, 4, 8, 12, 16) with 50 uL of allergen. For intranasal challenge, mice were lightly anesthetized with isoflurane inhalation (Abbott Laboratory, Abbott Park, Ill., USA). A 50 uL of AP1-retaining ferritin cage (GG-AP1L, 157cysAP1-PBNC) or AP1-not-inserted ferritin cage (wt FTL), which was diluted to 1 mg/ml in PBS, was administered 1 h before allergen challenge.
# Finally, the experimental mice were sacrificed, and lung slide specimens stained with periodic acid Schiff (PAS) were prepared. Then, changes of inflammatory cells and goblet cells were observed (arrowhead: mucin-positive goblet cell, arrow: inflammatory cell).
# C57BL/6J mice [2] = assay: Airway hyper-responsiveness (AHR) with FlexiVent system in APO-induced asthma model; details: 50 uL of 1 mg/ml, 1 h before allergen challenge; in comparison with control ferritin; FIG. 17a
# Experimental: as §1
# (§3) Asthma induction was performed by the existing method (Corry D B, Folkesson H G, Warnock M L, Erle D J, Matthay M A, et al. (1996) J Exp Med 183: 109117).
# as §2, with “challenge. […]” for “challenge.”
# Briefly, 16 h after final intranasal challenge, AHR was measured with a FlexiVent system (SCIREQ Inc., Montreal, Canada). […]
# C57BL/6J mice [3] = assay: BAL cytology in APO-induced asthma model; details: 50 uL of 1 mg/ml, 1 h before allergen challenge; in comparison with control ferritin
# Experimental: as §1, §3, §2
# For phenotypes of allergic asthma, AHR, BAL cytology, BAL glycoprotein assay, and lung histopathology were performed by the existing method (Lee, S. H., et al. (2003) Nat. Med. 9, 128111286). […]
# C57BL/6J mice [4] = assay: Secreted glycoprotein in BAL fluid (modified ELISA) in APO-induced asthma model; details: 50 uL of 1 mg/ml, 1 h before allergen challenge; FIG. 17d
# Experimental: as §1
# Briefly, Aspergillus oryzae protease (1 mg/mL in PBS, Sigma-Aldrich) and chicken egg ovalbumin (OVA, 0.5 mg/mL in PBS, Sigma-Aldrich) allergen (APO) were mixed 1:9 (v/v) immediately before administration. Mice received four intraperitoneal sensitizations and the intranasal challenge every 4 days (0, 4, 8, 12, 16) with 50 uL of allergen. […]
# Levels of secreted glycoprotein were measured with modified ELISA by the existing method (Lee, S. H. et al., (2004) J. Allergy Clin. Immunol. 113, 72778.). […]
# 40 ul of each sample was transferred to an ELSA plate Greiner, Kremsmunster, Austria), and incubated at 37° C. for 2 h. […] After final washing upon the completion of the reaction, 70 ul of alkaline phosphatase substrate (5 mmol in 0.1 mol/L alkaline buffer, Sigma-Aldrich) was added, and developed until a mucin standard curve was readily apparent. After termination of the reaction with addition of 40 ul of 0.5 N sodium hydroxide, optical density was measured at 405 nm by an ELISA reader (BioRad, Hercules, Calif., USA).
molecule,measurement,setting,value
B1,counts of mucus-producing goblet cells,C57BL/6J mice [1],significantly reduced
same,counts of peribronchial inflammatory cells,C57BL/6J mice [1],significantly reduced
same,airway hyper-responsiveness (AHR),C57BL/6J mice [2],significantly suppressed
same,count of eosinophils in BAL fluid,C57BL/6J mice [3],significantly decreased
same,count of inflammation cells in bronchoalveolar lavage (BAL) fluid,C57BL/6J mice [3],significantly decreased
same,amount of secreted glycoprotein in BAL fluid,C57BL/6J mice [4],significantly reduced
